The record followed here is US20120121591A1 (priority 2009, published 2012).

Read-outs that look alike come from different tables or passages of the source.

Experiment [1] concerns the target T1, human Kv1.3 (Homo sapiens, UniProt P22001). The experiment in a line: cell-based or functional assay.
Another experiment has as its target human Kv1.1 (Homo sapiens, UniProt Q09470). Put plainly: cell-based or functional assay.
For experiment [2], the system named is IFN-g secretion from T cells in human whole blood. The format is cell-based. The following applies: read-out: WB (IFNg) IC50 (nM, Avg).
The target of another experiment is hKv1.3 (Homo sapiens, UniProt P22001). The experiment in a line: cell-based. Format: cell-based. The following applies: Kv1.3 (IWQ) IC50 (nM, Avg).
hKv1.3, sequence (P22001 whole entry): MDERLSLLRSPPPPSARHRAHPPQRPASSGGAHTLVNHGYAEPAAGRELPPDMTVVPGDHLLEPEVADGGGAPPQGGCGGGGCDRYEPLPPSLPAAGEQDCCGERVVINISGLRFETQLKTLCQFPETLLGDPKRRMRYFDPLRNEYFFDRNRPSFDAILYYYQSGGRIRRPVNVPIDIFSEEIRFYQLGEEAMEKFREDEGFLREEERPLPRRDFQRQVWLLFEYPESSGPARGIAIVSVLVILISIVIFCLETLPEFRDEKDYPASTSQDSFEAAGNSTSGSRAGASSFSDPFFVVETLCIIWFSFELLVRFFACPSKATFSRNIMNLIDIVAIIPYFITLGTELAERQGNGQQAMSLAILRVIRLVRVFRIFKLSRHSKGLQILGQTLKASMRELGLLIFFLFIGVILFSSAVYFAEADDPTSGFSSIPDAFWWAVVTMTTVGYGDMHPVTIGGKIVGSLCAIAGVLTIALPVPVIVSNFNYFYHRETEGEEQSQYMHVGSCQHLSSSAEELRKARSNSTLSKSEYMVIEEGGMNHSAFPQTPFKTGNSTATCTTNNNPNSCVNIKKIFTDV
Experiment [3] relates to IL-2 secretion from T cells in human whole blood. The format is cell-based. The following applies: read-out: WB (IL-2) IC50 (nM, Avg).
Experiment [4] addresses T1, human Kv1.3. Put plainly: cell-based or functional assay. The source holds these as a separate data set.

T1 sequence (P22001 whole entry): as above
human Kv1.1, sequence (Q09470 whole entry): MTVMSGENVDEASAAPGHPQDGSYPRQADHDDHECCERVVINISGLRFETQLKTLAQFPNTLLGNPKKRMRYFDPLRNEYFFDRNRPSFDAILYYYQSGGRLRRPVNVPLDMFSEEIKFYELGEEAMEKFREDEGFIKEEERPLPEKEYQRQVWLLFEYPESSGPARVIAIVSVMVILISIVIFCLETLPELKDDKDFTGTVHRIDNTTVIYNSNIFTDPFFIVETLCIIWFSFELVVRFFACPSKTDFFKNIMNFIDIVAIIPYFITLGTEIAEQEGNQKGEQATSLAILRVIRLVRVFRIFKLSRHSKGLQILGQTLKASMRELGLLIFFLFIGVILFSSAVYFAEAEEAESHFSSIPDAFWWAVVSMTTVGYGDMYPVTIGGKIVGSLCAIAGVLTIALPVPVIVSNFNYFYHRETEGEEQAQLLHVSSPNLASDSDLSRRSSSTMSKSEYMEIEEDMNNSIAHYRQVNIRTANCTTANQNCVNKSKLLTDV

With 20kDaPEG-[1-Nal16]ShK (peptide), in the experiment with human Kv1.3 [1], the Kv1.3 (IWQ) IC50 was 39.1 nM, the WB (IFNg) IC50 turned out to be 100 nM and the WB (IL-2) IC50 came out at 100 nM.
For the compound 30kDaPEG-ShK (peptide), in the experiment with human Kv1.3 [1], the Kv1.3 (IWQ) IC50 was determined as 1.93 nM, the WB (IFNg) IC50 was 2.42 nM and the WB (IL-2) IC50 was 0.372 nM. Besides, the Kv1.1 (IWQ) IC50 with human Kv1.1 was 0.182 nM.
Turning to `CC[C@H](C)[C@@H]1NC(=O)[C@@H](NC(=O)[C@H](CO)NC(=O)[C@@H](N)CCCNC(=N)N)CSSC[C@@H](C(=O)O)NC(=O)[C@H]([C@@H](C)O)NC(=O)CNC(=O)[C@@H]2CSSC[C@@H]3NC(=O)[C@H](CCC(N)=O)NC(=O)[C@H](Cc4ccccc4)NC(=O)[C@H](C)NC(=O)[C@H]([C@@H](C)O)NC(=O)[C@H](CSSC[C@H](NC(=O)[C@H](Cc4ccccc4)NC(=O)[C@H](CO)NC(=O)[C@H](CC(C)C)NC(=O)[C@H](CCCNC(=N)N)NC(=O)[C@H](Cc4ccc(O)cc4)NC(=O)[C@H](CCCCN)NC(=O)[C@H](CCSC)NC(=O)[C@H](CO)NC(=O)[C@H](Cc4c[nH]cn4)NC(=O)[C@H](CCCCN)NC3=O)C(=O)N[C@@H](CCCCN)C(=O)N[C@@H](CCCCN)C(=O)N[C@@H]([C@@H](C)O)C(=O)N2)NC(=O)[C@H](CCCNC(=N)N)NC(=O)[C@H](CO)NC(=O)[C@H](CCCCN)NC(=O)[C@@H]2CCCN2C(=O)[C@H]([C@@H](C)CC)NC(=O)[C@H]([C@@H](C)O)NC(=O)[C@H](CC(=O)O)NC1=O` [[Lys29]ShK], the IC50 was 0.071 nM in experiment [2], 0.158 nM at hKv1.3 and 0.04 nM in experiment [3].
In the same order, the values of `CC[C@H](C)[C@@H]1NC(=O)[C@@H](NC(=O)[C@H](CO)NC(=O)[C@@H](N)CCCNC(=N)N)CSSC[C@@H](C(=O)O)NC(=O)[C@H]([C@@H](C)O)NC(=O)CNC(=O)[C@@H]2CSSC[C@@H]3NC(=O)[C@H](CCC(N)=O)NC(=O)[C@H](Cc4ccccc4)NC(=O)[C@H](C)NC(=O)[C@H]([C@@H](C)O)NC(=O)[C@H](CSSC[C@H](NC(=O)[C@H](Cc4ccccc4)NC(=O)[C@H](CO)NC(=O)[C@H](CC(C)C)NC(=O)[C@H](CCCNC(=N)N)NC(=O)[C@H](Cc4ccc(O)cc4)NC(=O)[C@H](CCCCN)NC(=O)[C@H](CCSC)NC(=O)[C@H](CO)NC(=O)[C@H](Cc4c[nH]cn4)NC(=O)[C@H](CCCCN)NC3=O)C(=O)N[C@@H](CCCNC(=N)N)C(=O)N[C@@H](CCCCN)C(=O)N[C@@H](CCCCN)C(=O)N2)NC(=O)[C@H](CCCNC(=N)N)NC(=O)[C@H](CO)NC(=O)[C@H](CCCCN)NC(=O)[C@@H]2CCCN2C(=O)[C@H]([C@@H](C)CC)NC(=O)[C@H]([C@@H](C)O)NC(=O)[C@H](CC(=O)O)NC1=O` [[Lys31]ShK] are 27.9 nM, 1.42 nM and 5.98 nM.
For the compound `CC[C@H](C)[C@@H]1NC(=O)[C@@H](NC(=O)[C@H](CO)NC(=O)[C@@H](N)CCCNC(=N)N)CSSC[C@@H](C(=O)O)NC(=O)[C@H](CCCCN)NC(=O)CNC(=O)[C@@H]2CSSC[C@@H]3NC(=O)[C@H](CCC(N)=O)NC(=O)[C@H](Cc4ccccc4)NC(=O)[C@H](C)NC(=O)[C@H]([C@@H](C)O)NC(=O)[C@H](CSSC[C@H](NC(=O)[C@H](Cc4ccccc4)NC(=O)[C@H](CO)NC(=O)[C@H](CC(C)C)NC(=O)[C@H](CCCNC(=N)N)NC(=O)[C@H](Cc4ccc(O)cc4)NC(=O)[C@H](CCCCN)NC(=O)[C@H](CCSC)NC(=O)[C@H](CO)NC(=O)[C@H](Cc4c[nH]cn4)NC(=O)[C@H](CCCCN)NC3=O)C(=O)N[C@@H](CCCNC(=N)N)C(=O)N[C@@H](CCCCN)C(=O)N[C@@H]([C@@H](C)O)C(=O)N2)NC(=O)[C@H](CCCNC(=N)N)NC(=O)[C@H](CO)NC(=O)[C@H](CCCCN)NC(=O)[C@@H]2CCCN2C(=O)[C@H]([C@@H](C)CC)NC(=O)[C@H]([C@@H](C)O)NC(=O)[C@H](CC(=O)O)NC1=O` [[Lys34]ShK], the IC50 stood at 0.136 nM in experiment [2], 0.15 nM against hKv1.3 and 0.067 nM in experiment [3].
In the same order, the values of `CCCC[C@@H]1NC(=O)[C@H](CO)NC(=O)[C@H](Cc2c[nH]cn2)NC(=O)[C@H](CCCCN)NC(=O)[C@@H]2CSSC[C@@H]3NC(=O)[C@H]([C@@H](C)O)NC(=O)[C@H](CCCCN)NC(=O)[C@H](CCCNC(=N)N)NC(=O)[C@H](CSSC[C@H](NC(=O)[C@H](CCCNC(=N)N)NC(=O)[C@H](CO)NC(=O)[C@H](CCCCN)NC(=O)[C@@H]4CCCN4C(=O)[C@H]([C@@H](C)CC)NC(=O)[C@H]([C@@H](C)O)NC(=O)[C@H](CC(=O)O)NC(=O)[C@H]([C@@H](C)CC)NC(=O)[C@@H](NC(=O)[C@H](CO)NC(=O)[C@@H](N)CCCNC(=N)N)CSSC[C@@H](C(N)=O)NC(=O)[C@H]([C@@H](C)O)NC(=O)CNC3=O)C(=O)N[C@@H]([C@@H](C)O)C(=O)N[C@@H](C)C(=O)N[C@@H](Cc3ccccc3)C(=O)N[C@@H](CCC(N)=O)C(=O)N2)NC(=O)[C@H](Cc2ccccc2)NC(=O)[C@H](CO)NC(=O)[C@H](CC(C)C)NC(=O)[C@H](CCCNC(=N)N)NC(=O)[C@H](Cc2ccc(O)cc2)NC(=O)[C@H](CCCCN)NC1=O` [[Nle21]ShK-amide] are 1.13 nM, 0.04 nM and 0.325 nM.
Consider Fc.L20.FcLoop(ShK) (Fc fusion), for which the In vitro whole blood assay (inhibition of IL-2) IC50 in the experiment with human Kv1.3 [1] was found to be 2.01 nM.
The same measure, in the same setting: as for FcLoop(ShK).L25.Fc (Fc fusion), the figure is 1.91 nM; as for “FcLoopShk/FcLoopShk (bivalent Fc) (Fc fusion)”, 2 nM.
In the experiment with human Kv1.3 [1], HmK (peptide) gave a Kv1.3 (IWQ) IC50 of 0.9 nM, a WB (IFNg) IC50 of 1.2 nM and a WB (IL-2) IC50 of 0.85 nM. This compound gave a Kv1.1 (IWQ) IC50 with human Kv1.1 of 0.015 nM.
In the experiment with human Kv1.3 [4], “Monovalent Fc/Fc-L10-ShK[2-35] heterodimer (Fc fusion)” gave a WB (IFNg) IC50 of 5.2 nM and a WB (IL-2) IC50 of 2.15 nM.
Regarding [1-Nal1]ShK (peptide), in the experiment with human Kv1.3 [1], the Kv1.3 (IWQ) IC50 was 0.225 nM, the WB (IFNg) IC50 worked out at 0.247 nM and the WB (IL-2) IC50 was determined as 0.222 nM. For the same compound, the Kv1.1 (IWQ) IC50 with human Kv1.1 was determined as 0.005 nM.
In the experiment with human Kv1.3 [1], [1-Nal2]ShK (peptide) yielded a Kv1.3 (IWQ) IC50 of 0.25 nM, a WB (IFNg) IC50 of 0.258 nM and a WB (IL-2) IC50 of 0.223 nM.
In the same order, the values of [1-Nal4]ShK (peptide) are 0.15 nM, 0.317 nM and 0.274 nM.
As for [1-Nal5]ShK (peptide), in the experiment with human Kv1.3 [1], the WB (IFNg) IC50 was 31.9 nM and the WB (IL-2) IC50 worked out at 70.4 nM.
As for [1-Nal6]ShK (peptide), in the experiment with human Kv1.3 [1], the Kv1.3 (IWQ) IC50 was determined as 0.15 nM, the WB (IFNg) IC50 came to 0.962 nM and the WB (IL-2) IC50 came out at 0.86 nM.
The corresponding values for [1-Nal7]ShK (peptide) are 0.699 nM, 18 nM and 11.6 nM.
In the experiment with human Kv1.3 [1], [1-Nal10]ShK (peptide) gave a Kv1.3 (IWQ) IC50 of 0.206 nM, a WB (IFNg) IC50 of 0.255 nM and a WB (IL-2) IC50 of 0.205 nM.
On to [1-Nal11]ShK (peptide), for which, in the experiment with human Kv1.3 [1], the Kv1.3 (IWQ) IC50 worked out at 0.922 nM, the WB (IFNg) IC50 came to 1.65 nM and the WB (IL-2) IC50 came out at 1.14 nM.
As to [1-Nal14]ShK (peptide), in the experiment with human Kv1.3 [1], the WB (IFNg) IC50 came to 0.11 nM and the WB (IL-2) IC50 stood at 0.089 nM.
With [1-Nal15]ShK (peptide), in the experiment with human Kv1.3 [1], the Kv1.3 (IWQ) IC50 turned out to be 0.072 nM, the WB (IFNg) IC50 amounted to 0.291 nM and the WB (IL-2) IC50 was 0.184 nM. For the same compound, in the experiment with human Kv1.1, the Kv1.1 (IWQ) IC50 came out at 0.009 nM.
On to [1-Nal16]ShK (peptide), for which, in the experiment with human Kv1.3 [1], the Kv1.3 (IWQ) IC50 is 0.699 nM, the WB (IFNg) IC50 stood at 9.55 nM and the WB (IL-2) IC50 was found to be 28.9 nM.
The corresponding values for [1-Nal18]ShK (peptide) are 0.471 nM, 0.375 nM and 0.419 nM.
In the experiment with human Kv1.3 [1], [1-Nal19]ShK (peptide) gave a Kv1.3 (IWQ) IC50 of 0.277 nM, a WB (IFNg) IC50 of 0.255 nM and a WB (IL-2) IC50 of 0.153 nM. This compound showed a Kv1.1 (IWQ) IC50 with human Kv1.1 of 0.001 nM.
In the experiment with human Kv1.3 [1], [1-Nal20]ShK (peptide) came in with a Kv1.3 (IWQ) IC50 of 2.11 nM, a WB (IFNg) IC50 of 100 nM and a WB (IL-2) IC50 of 100 nM.
In the experiment with human Kv1.3 [1], [1-Nal21]ShK (peptide) displayed a Kv1.3 (IWQ) IC50 of 0.669 nM, a WB (IFNg) IC50 of 8.13 nM and a WB (IL-2) IC50 of 6.59 nM.
In the experiment with human Kv1.3 [1], [1-Nal23]ShK (peptide) registered a Kv1.3 (IWQ) IC50 of 3.3 nM, a WB (IFNg) IC50 of 100 nM and a WB (IL-2) IC50 of 100 nM. For the same compound, in the experiment with human Kv1.1, the Kv1.1 (IWQ) IC50 is 3.3 nM.
In the case of [1-Nal25]ShK (peptide), in the experiment with human Kv1.3 [1], the Kv1.3 (IWQ) IC50 is 0.106 nM, the WB (IFNg) IC50 came out at 0.084 nM and the WB (IL-2) IC50 amounted to 0.061 nM.
In the same order, the values of [1-Nal26]ShK (peptide) are 0.352 nM, 0.573 nM and 0.357 nM.
For [1-Nal27]ShK (peptide), in the experiment with human Kv1.3 [1], the Kv1.3 (IWQ) IC50 turned out to be 0.144 nM, the WB (IFNg) IC50 turned out to be 2.84 nM and the WB (IL-2) IC50 amounted to 1.07 nM.
Take [1-Nal29]ShK (peptide): in the experiment with human Kv1.3 [1], the WB (IFNg) IC50 was 8.08 nM and the WB (IL-2) IC50 was found to be 4.72 nM.
Compound [1-Nal31]ShK (peptide) came in with a Kv1.1 (IWQ) IC50 with human Kv1.1 of 0.004 nM.
[1-Nal34]ShK (peptide): in the experiment with human Kv1.3 [1], the Kv1.3 (IWQ) IC50 is 0.077 nM, the WB (IFNg) IC50 was 0.063 nM and the WB (IL-2) IC50 was determined as 0.018 nM.
In the experiment with human Kv1.3 [1], [Dab16]ShK (peptide) displayed a Kv1.3 (IWQ) IC50 of 0.082 nM and a WB (IL-2) IC50 of 0.086 nM.
In the case of [Nle21]ShK (peptide), in the experiment with human Kv1.3 [1], the Kv1.3 (IWQ) IC50 was 0.04 nM, the WB (IFNg) IC50 came to 0.303 nM and the WB (IL-2) IC50 was 0.153 nM. Besides, the Kv1.1 (IWQ) IC50 with human Kv1.1 came out at 0.015 nM.

By IC50 is commonly meant the concentration at which inhibition is half-maximal.
